# From the RNAGym collection of RNA variant scans (doi:10.7554/elife.90254)
# B1: LINE1-full (parent)
# chain: UACGUAGGUGGUUUUCCCCUGAUAGUGCUAAGGGGGCCUGGAAGUUUGGACUGGGCAGAGCUCAACACAGCGUGGCAAAGUGGCUGUGGCUAGACUGCCUCUCUGGAUUCCUCGUCACUCAGCAGGGCAUCUCUGAGAGAAAUGCC
# Variants of: B1
# Assay: self-cleavage, relative activity (ratio to wild type); higher = more cleavage; in vitro, sequencing; the parent is a self-cleaving ribozyme
row,Variant,self-cleavage
1,UACGUAGGUGGUUUUCCCCCGAUAGUGCUAAGGGGGCCUGGAAGUUUGGACUGGGCAGAGCUCAACACAGCGUGGCAAAGUGGCUGUGGCUAGACUGCCUCUCUGGAUUCCUCGUCACUCGGCAGGGCAUCUCUGAGAGAAAUGCC [U20C A121G],1.35
2,UACGUAGGUGGUUUUCCCCCGAUAGAGCUAAGGGGGCCUGGAAGUUUGGACUGGGCAGAGCUCAACACAGCGUGGCAAAGUGGCUGUGGCUAGACUGCCUCUCUGGAUUCCUCGUCACUCAGCAGGGCAUCUCUGAGAGAAAUGCC [U20C U26A],0.92
3,UACGUAGGUGGUUUUCCCCCGAUAGUGCUAAGGGGGCCUGGAAGUUUGGACUGGGCAGAGCUCAACACAGCGUGGCAAAGUGGCUGUGGCUAGACUGCCUCUCUGGAUUCCUCGUCACUCAGCAGGGCUUCUCUGAGAGAAAUGCC [U20C A129U],1.3
4,UACGUAGGUGGUUUUCCCCCGAUAGUGCUAAGGGGGCCUGGAAGUUUGGACUGGGCAGAGCUCAACACAGCGUGGCAAAGUGGCUGUGGCUAGACUGCCUCUCUGGAUUCCUCGUCACUCAGCAGGGCGUCUCUGAGAGAAAUGCC [U20C A129G],2.29
5,UACGUAGGUGGUUUUCCCCCAAUAGUGCUAAGGGGGCCUGGAAGUUUGGACUGGGCAGAGCUCAACACAGCGUGGCAAAGUGGCUGUGGCUAGACUGCCUCUCUGGAUUCCUCGUCACUCAGCAGGGCAUCUCUGAGAGAAAUGCC [U20C G21A],1.12
6,UACGUAGGUGGUUUUCCCCCGAUAGUGCUAAGGGGGCCUGGAAGUUUGGACUGGGCAGAGCUCAACACAGCCUGGCAAAGUGGCUGUGGCUAGACUGCCUCUCUGGAUUCCUCGUCACUCAGCAGGGCAUCUCUGAGAGAAAUGCC [U20C G72C],2.53
7,UACGUAGGUGGUUUUCCCCCGAUAGUGCUAAGGGGGCCUGGAAGUUUGGACUGGGCAGAGCUCAACACAGCGUUGCAAAGUGGCUGUGGCUAGACUGCCUCUCUGGAUUCCUCGUCACUCAGCAGGGCAUCUCUGAGAGAAAUGCC [U20C G74U],1.46
8,UACGUAGGUGGUUUUCCCCCGAUAGUGCUAAGGGGGCCUGGAAGUUUGGACUGGGCAGAGCUCAACACAGCGUGGCAAAGUGGCUGUGGCUAGACUGCCUCUAUGGAUUCCUCGUCACUCAGCAGGGCAUCUCUGAGAGAAAUGCC [U20C C103A],1.49
9,UACGUAGGUGGUUUUCCCCCGAUAGUGAUAAGGGGGCCUGGAAGUUUGGACUGGGCAGAGCUCAACACAGCGUGGCAAAGUGGCUGUGGCUAGACUGCCUCUCUGGAUUCCUCGUCACUCAGCAGGGCAUCUCUGAGAGAAAUGCC [U20C C28A],0.84
10,UACGUAGGUGGUUUUCCCCCGAUAGUGCUAAGGGGGCCUGGAAGUUUGGACUGGGCAGAGCUCAACACAGCGUGGCAAAGUGGCUGUGGCUAGACUGCCUCUCUGGAUUCCUCGUCACUCAGAAGGGCAUCUCUGAGAGAAAUGCC [U20C C123A],1.34
11,UACGUAGGUGGUUUUCCCCCGAUAGUGCUAAGGGGGCCUGGAAGUUUGGACUGGGCAGAGCUCAACACAGCGUGGCAAAGUGGCUGUGGCUAGACUGCCUCUCUGGAUUCCUCGUCACUCAGUAGGGCAUCUCUGAGAGAAAUGCC [U20C C123U],0.91
12,UACGUAGGUGGUUUUCCCCCGAUAGUGCUAAGGGGGCCUGGAAGUUUGGACUGGGCAGAGCUCAACACAGCGUGGCAAAGUGGCUGUGGCUAAACUGCCUCUCUGGAUUCCUCGUCACUCAGCAGGGCAUCUCUGAGAGAAAUGCC [U20C G93A],0.04
13,UACGUAGGUGGUUUUCCCCCGAUAGUGCUAAGGGGGCCUGGAAGUUUGGACUGGGCAGAGCUCAACACAGCGUGGCAAAGUGGCUGUGGCUAGACUGCCUCUCUGGAUUCUUCGUCACUCAGCAGGGCAUCUCUGAGAGAAAUGCC [U20C C111U],1.03
14,UACGUAGGUGGUUUUCCCCCGAUAGUGCUAAGGGGGCCUGGAAGUUUGGACUGGGCAGAGCUCAACACAGCGUGGCAAAGUGGCUGUGGCUAGACUGCUUCUCUGGAUUCCUCGUCACUCAGCAGGGCAUCUCUGAGAGAAAUGCC [U20C C99U],0.68
15,UACGUAGGUGGUUUUCCCCCGAUAGUGCUAAGGGGGCCUGGAAGUUUGGACUGGGCAGAGCUCAACACAGCGUGGCAAAGUGGCUGUGGCUAGACUGCCUCUCUGGAUUCCUCGUCGCUCAGCAGGGCAUCUCUGAGAGAAAUGCC [U20C A117G],1.59
16,UACGUAGGUGGUUUUCCCCCGAUAGUGCUAAGGGGGCCUGGAAGUUUGGACUGUGCAGAGCUCAACACAGCGUGGCAAAGUGGCUGUGGCUAGACUGCCUCUCUGGAUUCCUCGUCACUCAGCAGGGCAUCUCUGAGAGAAAUGCC [U20C G54U],0.91
17,UACGUAGGUGGUUUUCCCCCGAUAGUGCUAAGGGGGCCUGGAAGUUUGGACUGGGCAGAGCUCAACACAGCGUGGCAAAGUGGCUGUGGCUAGACUGCCUCUCUGGAUUCCUCGUCACUCAGCAGGGCAUCUCUGCGAGAAAUGCC [U20C A136C],1.74
18,UACGUAGGUGGUUUUCCCCCGAUAGUGCUAAGGGGGCCUGGAAGUUUGGACUGGGCAGAGCUCAACACAGCGUGGCAAAGUGGCUGUGGCUAGACUGCCUCUCUGGAUUCCUCGUCACUCAGCAGGGCAUCUCUGGGAGAAAUGCC [U20C A136G],1.26
19,UACGUAGGUGGUUUUCCCCCGAUAGUGCUAAGGGGGCCUGGAAGUUUGGACUGGGCAGAGCUCAACACAGCGUGGCAAAGUGGCUGUGGCUAGACUGCCUCUCUGGAUUCCUCGUCACUCAGCAGUGCAUCUCUGAGAGAAAUGCC [U20C G126U],1.92
20,UACGUAGGUGGUUUUCCCCCGAUAGUGCUAAGGGGGCCUGGAAGUUUGGACUGGGCAGAGCUCAACACAGCGUGGCAAAGUGGCUGUGACUAGACUGCCUCUCUGGAUUCCUCGUCACUCAGCAGGGCAUCUCUGAGAGAAAUGCC [U20C G89A],0.09

row,Variant,self-cleavage
1,UACGUAGGUGGUUUUCCCCCGAUAGUGCUAAGGGGGCCUGGAAGUUUGGACUGGGCAGAGCUCAACACAGCGUGGCAAAGUGGCUGUGGCUAGACUGCCUCUCUGGAUUCCUAGUCACUCAGCAGGGCAUCUCUGAGAGAAAUGCC [U20C C113A],1.06
2,UACGUAGGUGGUUUUCCCCCGAUAGUGCUAAGGGGGCCUGGAAGUUUGGACUGGGCAGAGCUCAACACAACGUGGCAAAGUGGCUGUGGCUAGACUGCCUCUCUGGAUUCCUCGUCACUCAGCAGGGCAUCUCUGAGAGAAAUGCC [U20C G70A],0.14
3,UACGUAGGUGGUUUUCCCCCGAUAGUGCUAAGGGGGCCUGGAAGUUUGGACUGGGCAGAGCUCAACACAUCGUGGCAAAGUGGCUGUGGCUAGACUGCCUCUCUGGAUUCCUCGUCACUCAGCAGGGCAUCUCUGAGAGAAAUGCC [U20C G70U],0.05
4,UACGUAGGUGGUUUUCCCCCGAUAGUGCUAAGGGGGCCUGGAAGUUUGGACUGGACAGAGCUCAACACAGCGUGGCAAAGUGGCUGUGGCUAGACUGCCUCUCUGGAUUCCUCGUCACUCAGCAGGGCAUCUCUGAGAGAAAUGCC [U20C G55A],0.25
5,UACGUAGGUGGUUUUCCCCCGAUAGUGCUAAGGGAGCCUGGAAGUUUGGACUGGGCAGAGCUCAACACAGCGUGGCAAAGUGGCUGUGGCUAGACUGCCUCUCUGGAUUCCUCGUCACUCAGCAGGGCAUCUCUGAGAGAAAUGCC [U20C G35A],1.73
6,UACGUAGGUGGUUUUCCCCCGAUAGUGCUAAGGGGGCCUGGAAGUUUGGACUGGGUAGAGCUCAACACAGCGUGGCAAAGUGGCUGUGGCUAGACUGCCUCUCUGGAUUCCUCGUCACUCAGCAGGGCAUCUCUGAGAGAAAUGCC [U20C C56U],0.11
7,UACGUAGGUGGUUUUCCCCCGAUAGUGCUAAGGGGGCCUGGAAGUUUGGACUGGGCAGAGCUCAACACAGCGUGGCAAAGUGGCUGUGGCUAGACUGCCUCUCUGGAUUUCUCGUCACUCAGCAGGGCAUCUCUGAGAGAAAUGCC [U20C C110U],1.4
8,UACGUAGGUGGUUUUCCCCCGAUAGUGCUAAGGGGCCCUGGAAGUUUGGACUGGGCAGAGCUCAACACAGCGUGGCAAAGUGGCUGUGGCUAGACUGCCUCUCUGGAUUCCUCGUCACUCAGCAGGGCAUCUCUGAGAGAAAUGCC [U20C G36C],1.51
9,UACGUAGGUGGUUUUCCCCCGAUAGUGCUAAGGGGGCCUGGAAGUUUGGACUGGGCAGAGCUCAACACAGUGUGGCAAAGUGGCUGUGGCUAGACUGCCUCUCUGGAUUCCUCGUCACUCAGCAGGGCAUCUCUGAGAGAAAUGCC [U20C C71U],0.77
10,UACGUAGGUGGUUUUCCCCCGAUAGUGCUAAGGGGGCCUGGAAGUUUGGACUGGGCAGAGCUCAACACAGCGUGGCAAAGUGGCUGUGGCUAGACUGACUCUCUGGAUUCCUCGUCACUCAGCAGGGCAUCUCUGAGAGAAAUGCC [U20C C98A],0.07
11,UACGUAGGUGGUUUUCCCCCGAUAGUGCUAAGGGGGCCUCGAAGUUUGGACUGGGCAGAGCUCAACACAGCGUGGCAAAGUGGCUGUGGCUAGACUGCCUCUCUGGAUUCCUCGUCACUCAGCAGGGCAUCUCUGAGAGAAAUGCC [U20C G40C],2.31
12,UACGUAGGUGGUUUUCCCCCGAUAGUGCUAAGGGGGCCUGGAAGUUUGGACUGGGCAGAGCUCAACACAGCGUGGCAAAGUGGCUGUAGCUAGACUGCCUCUCUGGAUUCCUCGUCACUCAGCAGGGCAUCUCUGAGAGAAAUGCC [U20C G88A],0.06
13,UACGUAGGUGGUUUUCCCCCGAUAGUGCUAAGGGGGCCUGGAAGUUUGGACUGGGCAGAGCUCAACACAGCGUGGCAAAGUGGCUGUGGCUAGACUGCCUCUCUGGAUUCCUCGUCACUCAGCAGGGCAUCUCUGAGAGGAAUGCC [U20C A140G],1.35
14,UACGUAGGUGGUUUUCCCCCGAUAGUGCUAAGGGGGCCUGGAAGUUUGGACUGGGCAGAUCUCAACACAGCGUGGCAAAGUGGCUGUGGCUAGACUGCCUCUCUGGAUUCCUCGUCACUCAGCAGGGCAUCUCUGAGAGAAAUGCC [U20C G60U],0.05
15,UACGUAGGUGGUUUUCCCCCGAUAGUACUAAGGGGGCCUGGAAGUUUGGACUGGGCAGAGCUCAACACAGCGUGGCAAAGUGGCUGUGGCUAGACUGCCUCUCUGGAUUCCUCGUCACUCAGCAGGGCAUCUCUGAGAGAAAUGCC [U20C G27A],1.12
16,UACGUAGGUGGUUUUCCCCCGAUAGUGCUAAGGGGGGCUGGAAGUUUGGACUGGGCAGAGCUCAACACAGCGUGGCAAAGUGGCUGUGGCUAGACUGCCUCUCUGGAUUCCUCGUCACUCAGCAGGGCAUCUCUGAGAGAAAUGCC [U20C C37G],1.08
17,UACGUAGGUGGUUUUCCCCCGAUAGUGCUAAGGGGGUCUGGAAGUUUGGACUGGGCAGAGCUCAACACAGCGUGGCAAAGUGGCUGUGGCUAGACUGCCUCUCUGGAUUCCUCGUCACUCAGCAGGGCAUCUCUGAGAGAAAUGCC [U20C C37U],1.33
18,UACGUAGGUGGUUUUCCCCCGAUAGUGCUAAGGGGGCAUGGAAGUUUGGACUGGGCAGAGCUCAACACAGCGUGGCAAAGUGGCUGUGGCUAGACUGCCUCUCUGGAUUCCUCGUCACUCAGCAGGGCAUCUCUGAGAGAAAUGCC [U20C C38A],1.11
19,UACGUAGGUGGUUUUCCCCCGAUAGUGCUAAGGGGGCCUGGAAGUUUGGACUGGGCAGAGCUUAACACAGCGUGGCAAAGUGGCUGUGGCUAGACUGCCUCUCUGGAUUCCUCGUCACUCAGCAGGGCAUCUCUGAGAGAAAUGCC [U20C C63U],0.48
